B1: Testis-specific protein 10-interacting protein (Homo sapiens), Q3SY00 (parent)
chain: MGQDTDMLNTYQQLVRTPSVRPGQDVRLQAPGTRTGLLKLLSTVSQDKQGCLGSGDGVPNQDLQQRSQSSRQTAKKDRKPRGQSKKGQGSEESEDHFPLLPRKPSFPFQWAWESIATDVRAVLQPSSPTPGHQALPMPSSFSQRQSRRKSTANLPEAHGCCWKTEAQNLKARQQLGAWGGVSIPTGKGELGSEPPSGLQLPGRRPGSGSASDKQVQLQSLGAEEAERGLSSGVLPQRPRRGSISEEEQFSEATEEAEEGEHRTPCRRRAGCQRKGQISGEEASDEGEVQGQSQGSSPSFNNLRRRQWRKTRAKELQGPWDLEKLHRQLQRDLDCGPQKLPWKTLRAAFQASKRNGKAYASGYDETFVSANLPNRTFHKRQEATRSLLQAWERQRQEERQQAELRRARTQHVQRQVAHCLAAYAPRGSRGPGAAQRKLEELRRQERQRFAEYQAELQGIQHRVQARPFLFQQAMQANARLTVTRRFSQVLSALGLDEEQLLSEAGKVDREGTPRKPRSHRSMGVRMEHSPQRPPRTEPTGSQPDRHYNPSLDPECSP
B2: Zinc finger protein 581 (Homo sapiens), Q9P0T4 (parent)
chain: MLVLPSPCPQPLAFSSVETMEGPPRRTCRSPEPGPSSSIGSPQASSPPRPNHYLLIDTQGVPYTVLVDEESQREPGASGAPGQKKCYSCPVCSRVFEYMSYLQRHSITHSEVKPFECDICGKAFKRASHLARHHSIHLAGGGRPHGCPLCPRRFRDAGELAQHSRVHSGERPFQCPHCPRRFMEQNTLQKHTRWKHP

Variants of: B1
Conditions: with mtus2_human MTUS2, Q5JR59
Target sequence in this assay (Q5JR59 whole entry): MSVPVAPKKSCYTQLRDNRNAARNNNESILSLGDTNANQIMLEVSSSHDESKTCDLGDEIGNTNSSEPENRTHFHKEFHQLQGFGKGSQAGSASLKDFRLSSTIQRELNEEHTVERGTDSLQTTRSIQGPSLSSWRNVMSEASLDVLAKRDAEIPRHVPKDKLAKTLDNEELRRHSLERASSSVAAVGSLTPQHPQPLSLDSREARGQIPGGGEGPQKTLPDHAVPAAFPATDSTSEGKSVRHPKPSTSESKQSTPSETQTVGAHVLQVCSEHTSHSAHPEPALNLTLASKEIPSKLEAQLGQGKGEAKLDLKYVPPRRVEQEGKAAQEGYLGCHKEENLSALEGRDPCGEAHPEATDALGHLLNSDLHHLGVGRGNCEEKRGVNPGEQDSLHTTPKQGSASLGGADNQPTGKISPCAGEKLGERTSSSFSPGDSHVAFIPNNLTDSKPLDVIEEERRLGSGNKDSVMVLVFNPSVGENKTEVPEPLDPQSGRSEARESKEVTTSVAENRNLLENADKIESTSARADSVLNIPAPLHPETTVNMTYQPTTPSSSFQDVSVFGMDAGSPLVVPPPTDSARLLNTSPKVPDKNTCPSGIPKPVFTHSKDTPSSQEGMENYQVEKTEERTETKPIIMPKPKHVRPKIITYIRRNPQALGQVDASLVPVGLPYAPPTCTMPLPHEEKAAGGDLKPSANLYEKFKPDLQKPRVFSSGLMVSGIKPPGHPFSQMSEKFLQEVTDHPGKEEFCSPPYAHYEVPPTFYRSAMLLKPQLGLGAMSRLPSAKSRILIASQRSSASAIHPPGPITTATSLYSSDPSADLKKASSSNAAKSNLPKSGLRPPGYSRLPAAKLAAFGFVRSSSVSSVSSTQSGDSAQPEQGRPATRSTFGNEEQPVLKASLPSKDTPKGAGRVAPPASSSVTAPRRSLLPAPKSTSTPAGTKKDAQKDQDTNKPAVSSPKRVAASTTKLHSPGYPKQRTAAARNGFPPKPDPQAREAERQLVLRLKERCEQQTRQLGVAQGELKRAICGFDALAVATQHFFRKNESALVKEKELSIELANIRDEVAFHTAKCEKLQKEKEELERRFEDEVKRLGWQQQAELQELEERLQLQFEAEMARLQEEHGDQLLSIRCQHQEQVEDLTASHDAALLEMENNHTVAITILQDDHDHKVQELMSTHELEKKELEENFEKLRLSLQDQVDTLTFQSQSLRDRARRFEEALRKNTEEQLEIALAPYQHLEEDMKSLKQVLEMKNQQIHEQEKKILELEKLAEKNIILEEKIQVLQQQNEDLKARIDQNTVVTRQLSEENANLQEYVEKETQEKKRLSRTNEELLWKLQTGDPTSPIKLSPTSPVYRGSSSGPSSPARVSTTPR

| Variant | effect of a mutation on the interaction |
| --- | --- |
| S242L | with no effect |
| R305P | with no effect |
| R303Q | with no effect |
| R237S | with no effect |
| V215A | with no effect |
| S292N | with no effect |
| D25E | with no effect |

Variants of: B1
Conditions: with cep70_human CEP70, Q8NHQ1
cep70_human CEP70, Q8NHQ1, sequence (Q8NHQ1 whole entry): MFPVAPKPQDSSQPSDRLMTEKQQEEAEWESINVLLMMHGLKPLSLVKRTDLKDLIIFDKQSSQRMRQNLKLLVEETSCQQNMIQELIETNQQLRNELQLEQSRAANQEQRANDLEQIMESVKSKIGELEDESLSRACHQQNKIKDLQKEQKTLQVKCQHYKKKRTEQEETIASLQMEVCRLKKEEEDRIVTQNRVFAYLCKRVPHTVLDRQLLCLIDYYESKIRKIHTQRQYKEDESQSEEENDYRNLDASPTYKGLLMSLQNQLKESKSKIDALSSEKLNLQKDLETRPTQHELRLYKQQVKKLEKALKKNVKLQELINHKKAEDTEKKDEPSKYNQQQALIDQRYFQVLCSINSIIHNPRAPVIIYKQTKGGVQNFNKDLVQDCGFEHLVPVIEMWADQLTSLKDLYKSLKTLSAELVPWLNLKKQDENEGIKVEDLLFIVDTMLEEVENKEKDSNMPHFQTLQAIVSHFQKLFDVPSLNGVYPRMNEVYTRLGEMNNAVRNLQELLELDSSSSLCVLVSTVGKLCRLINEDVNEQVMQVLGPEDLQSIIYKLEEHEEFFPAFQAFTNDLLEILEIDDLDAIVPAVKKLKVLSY

| Variant | effect of a mutation on the interaction |
| --- | --- |
| S242L | with no effect |
| A210V | with no effect |

Variants of: B2
Conditions: with cc136_human CCDC136, Q96JN2
cc136_human CCDC136, Q96JN2, sequence (Q96JN2 whole entry): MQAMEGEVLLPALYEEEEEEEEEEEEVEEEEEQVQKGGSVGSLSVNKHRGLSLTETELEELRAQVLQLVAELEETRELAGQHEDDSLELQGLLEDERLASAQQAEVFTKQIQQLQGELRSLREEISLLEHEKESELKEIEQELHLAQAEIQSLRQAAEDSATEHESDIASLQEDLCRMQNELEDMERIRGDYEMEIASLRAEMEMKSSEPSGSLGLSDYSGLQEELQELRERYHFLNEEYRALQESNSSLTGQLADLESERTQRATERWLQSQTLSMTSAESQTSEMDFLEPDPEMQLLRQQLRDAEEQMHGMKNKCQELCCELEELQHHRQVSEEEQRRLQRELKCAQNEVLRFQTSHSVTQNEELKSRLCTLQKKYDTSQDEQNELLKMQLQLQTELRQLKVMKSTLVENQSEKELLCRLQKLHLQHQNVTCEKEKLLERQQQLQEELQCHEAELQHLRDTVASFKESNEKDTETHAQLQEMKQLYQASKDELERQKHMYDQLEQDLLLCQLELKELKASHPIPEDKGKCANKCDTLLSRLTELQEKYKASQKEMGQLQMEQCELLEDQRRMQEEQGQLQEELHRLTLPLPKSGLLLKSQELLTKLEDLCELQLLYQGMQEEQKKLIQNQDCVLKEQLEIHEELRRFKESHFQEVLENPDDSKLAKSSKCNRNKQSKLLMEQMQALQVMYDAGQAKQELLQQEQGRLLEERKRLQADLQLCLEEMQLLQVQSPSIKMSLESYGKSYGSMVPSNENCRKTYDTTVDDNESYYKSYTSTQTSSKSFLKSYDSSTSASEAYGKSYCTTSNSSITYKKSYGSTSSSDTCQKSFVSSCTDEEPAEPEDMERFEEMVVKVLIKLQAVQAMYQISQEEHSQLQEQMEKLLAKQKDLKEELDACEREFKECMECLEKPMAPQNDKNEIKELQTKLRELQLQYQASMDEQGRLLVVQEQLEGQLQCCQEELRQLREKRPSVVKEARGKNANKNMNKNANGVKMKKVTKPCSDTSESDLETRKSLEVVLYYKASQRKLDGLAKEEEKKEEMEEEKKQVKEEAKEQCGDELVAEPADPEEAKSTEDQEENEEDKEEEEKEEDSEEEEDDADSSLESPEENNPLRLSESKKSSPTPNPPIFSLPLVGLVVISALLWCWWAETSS

| Variant | effect of a mutation on the interaction |
| --- | --- |
| MLVLPSPCPQPLAFSSVETMEGPPRRTCRSPAPGPSSSIGSPQASSPPRPNHYLLIDTQGVPYTVLVDEESQREPGASGAPGQKKCYSCPVCSRVFEYMSYLQRHSITHSEVKPFECDICGKAFKRASHLARHHSIHLAGGGRPHGCPLCPRRFRDAGELAQHSRVHSGERPFQCPHCPRRFMEQNTLQKHTRWKHP [E32A] | with no effect |

Variants of: B2
Conditions: with mtus2_human MTUS2, Q5JR59
Target sequence in this assay (Q5JR59 whole entry): as the sequence (Q5JR59 whole entry) above

| Variant | effect of a mutation on the interaction |
| --- | --- |
| MLVLPSPCPQPLAFSSVETMEGPPRRTCRSPAPGPSSSIGSPQASSPPRPNHYLLIDTQGVPYTVLVDEESQREPGASGAPGQKKCYSCPVCSRVFEYMSYLQRHSITHSEVKPFECDICGKAFKRASHLARHHSIHLAGGGRPHGCPLCPRRFRDAGELAQHSRVHSGERPFQCPHCPRRFMEQNTLQKHTRWKHP [E32A] | with no effect |

Variants of: B2
Conditions: with tri23_human TRIM23, P36406
tri23_human TRIM23, P36406, sequence (P36406 whole entry): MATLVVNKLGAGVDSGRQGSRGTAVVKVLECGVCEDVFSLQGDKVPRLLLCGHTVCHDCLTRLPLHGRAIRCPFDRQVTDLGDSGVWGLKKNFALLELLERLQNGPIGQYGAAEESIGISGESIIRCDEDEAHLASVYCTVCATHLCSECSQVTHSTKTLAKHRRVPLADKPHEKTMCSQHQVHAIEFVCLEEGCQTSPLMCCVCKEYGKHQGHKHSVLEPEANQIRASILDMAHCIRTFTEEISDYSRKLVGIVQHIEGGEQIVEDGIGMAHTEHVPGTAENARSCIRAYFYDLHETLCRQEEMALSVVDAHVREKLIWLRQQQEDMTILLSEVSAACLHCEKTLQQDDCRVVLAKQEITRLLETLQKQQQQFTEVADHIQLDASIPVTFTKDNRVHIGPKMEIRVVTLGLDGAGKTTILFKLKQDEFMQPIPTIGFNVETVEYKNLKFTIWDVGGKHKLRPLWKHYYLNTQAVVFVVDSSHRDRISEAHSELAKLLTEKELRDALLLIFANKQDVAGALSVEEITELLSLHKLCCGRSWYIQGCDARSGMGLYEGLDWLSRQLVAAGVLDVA

| Variant | effect of a mutation on the interaction |
| --- | --- |
| MLVLPSPCPQPLAFSSVETMEGPPRRTCRSPAPGPSSSIGSPQASSPPRPNHYLLIDTQGVPYTVLVDEESQREPGASGAPGQKKCYSCPVCSRVFEYMSYLQRHSITHSEVKPFECDICGKAFKRASHLARHHSIHLAGGGRPHGCPLCPRRFRDAGELAQHSRVHSGERPFQCPHCPRRFMEQNTLQKHTRWKHP [E32A] | with no effect |

Source: IntAct's records for PubMed 31515488
